Five molecules from paper PMC10003557 (International Journal of Molecular Sciences, 2023) can be followed below.

Numbering of substitutions follows the chain as printed.

Test [1] concerns the target T1, biotinylated RBD protein (SPD-C82E9, Acro Biosystems) (SARS-CoV-2 (WT), UniProt P0DTC2).
T1 construct: also called Biotinylated RBD WT; RBD-Qbeads
The experiment in a line: bead-based flow cytometry (iQue3, Qbeads) competition assay. The conditions noted are these: both partners purified.

The target in test [2] is T2, SARS-CoV-2 receptor-binding domain (RBD) wild-type (WT) (SARS-CoV-2 (Wuhan, WT), UniProt P0DTC2).
T2 construct: also called RBD WT; RBD Wuhan (WT)
Nature of the test: bead-based flow cytometry (iQue3) blocking assay. The conditions noted are these: both partners purified. In general terms: Flow cytometry measures light scatter and fluorescence of single cells or particles in a stream.

Test [3] addresses T2, SARS-CoV-2 receptor-binding domain …. Nature of the test: ELISA; binding ELISA of purified hIgG1 on RBD; EC50. The conditions noted are these: both partners purified.
For test [4] the target is unchanged. Nature of the test: SPR; Biacore; antibodies captured on the chip (Protein A CM5 chip by the methods, anti-IgG antibody by the results), RBD WT flown over; 1:1 Langmuir fit. Conditions: both partners purified. (SPR reads the build-up and loss of mass on a sensor chip optically.)
The target of test [5] is T1, biotinylated RBD protein (SPD-C82E9, …). The experiment in a line: bead-based flow cytometry (iQue3, Qbeads) competition assay. The conditions noted are these: both partners purified. This is another data set of the same source.
Test [6] has as its target T2, SARS-CoV-2 receptor-binding domain …. Nature of the test: SPR; Biacore; antibodies captured on the chip (Protein A CM5 chip by the methods, anti-IgG antibody by the results), RBD WT flown over; 1:1 Langmuir fit. The conditions noted are these: both partners purified. This is another data set of the same source.
Test [7] shares this target. The experiment in a line: bead-based flow cytometry (iQue3) blocking assay. Conditions: both partners purified. This is another data set of the same source.
The target is the same in test [8]. Nature of the test: cell-based or functional assay.

B1: P5E1 (hIgG1) (antibody, V domains shown)
VH: EVQLLESGGGLVQPGGSLRLSCAASGFTFSDSAMSWVRQAPGKGLEWVSGIYGRGGYTYYADSVKGRFTISRDNSKNTLYLQMNSLRAEDTAVYYCARGGSWFDPWGQGTLVTVSS
VL: not shown
B1 had an IC50 in test [1] of 2.15 nM. In addition, in test [2], the half-inhibitory concentration (IC50) turned out to be 2.63 nM. The molecule also came in with an EC50 in test [3] of 0.97 nM. Also, in test [4], binding was put at a Kd of 27.1 nM, the off-rate constant (koff) worked out at 0.00433 s⁻¹ and the kon was determined as 160000 M⁻¹ s⁻¹.

B2: P5A10-G2 (hIgG1) (antibody, V domains shown)
VH: EVQLLESGGGLVQPGGSLRLSCAASGFTSSNTWMSWVRQAPGKGLEWVSGIDGRGGSTYYADSVKGRFTISRDNSKNTLYLQMNSLRAEDTAVYYCATDSSTQPWYFDLWGRGTLVTVSS
VL: EIVLTQSPATLSLSPGERATLSCRASQSVSSNLAWYQQKPGQAPRLLIYDASNRATGIPARFSGSGSGTDFTLTISSLEPEDFAVYYCQQREREPITFGQGTKVEIK
With B2, in test [5], the concentration for half-maximal inhibition (IC50) worked out at 1.23 nM. In addition, in test [6], the Kd came to 0.39 nM, the dissociation rate constant (koff) was found to be 0.000578 s⁻¹ and the kon was found to be 1.49e+06 M⁻¹ s⁻¹. Besides, the IC50 in test [7] was determined as 1.18 nM. In addition, the “PRNT: authentic SARS-CoV-2 on Vero E6 cells, NC50; pair blocked: RBD with hACE-2” value (“PRNT … with hACE-2” below) in test [8] came to 61.1 nM.

B3: P5A10-G4 (hIgG1) (antibody, V domains shown)
VH: EVQLLESGGGLVQPGGSLRLSCAASGFTFSSYWMSWVRQAPGKGLEWVSGISGSGRRAFGGSTYYADSVKGRFTISRDNSKNTLYLQMNSLRAEDTAVYYCATDSSTQPWYFDLWGRGTLVTVSS
VL: B2 VL
In test [5], B3 had an IC50 of 0.12 nM. In test [6], this molecule returned a Kd of 0.14 nM, a koff of 0.000148 s⁻¹ and an association rate constant (kon) of 1.09e+06 M⁻¹ s⁻¹. This molecule had an IC50 in test [7] of 0.78 nM. Besides, the “PRNT … with hACE-2” value in test [8] came to 10.4 nM.

B4: P5A10 (hIgG1) (antibody, V domains shown)
VH: B2 VH with S29F, N31S, T32S, W33A, D52Y
VL: B2 VL
In test [1], B4 gave a 50% inhibitory concentration (IC50) of 2.34 nM. The molecule also came in with an EC50 in test [3] of 16.9 nM. In test [4], this molecule had a Kd of 28.8 nM, an off-rate (koff) of 0.00367 s⁻¹ and a kon of 127000 M⁻¹ s⁻¹.

B5: P5E1-A6 (hIgG1) (antibody, V domains shown)
VH: EVQLLESGGGLVQPGGSLRLSCAASGFTFTSTAMSWVRQAPGKGLEWVSGIYGRGSTRYADSVKGRFTISRDNSKNTLYLQMNSLRAEDTAVYYCARGGSWFDPWGQGTLVTVSS
VL: not shown
In the case of B5, in test [5], the IC50 was found to be 0.06 nM. In addition, in test [6], the Kd worked out at 0.89 nM, the off-rate constant (koff) is 0.000527 s⁻¹ and the kon was 588000 M⁻¹ s⁻¹. The molecule also yielded an IC50 in test [7] of 0.61 nM. In test [8], the “PRNT … with hACE-2” value was found to be 43.9 nM.

The term IC50 denotes the concentration that inhibits the measured activity by half. Higher therefore signals lower potency. What is called EC50 is the concentration giving half of the maximal effect. Usually Kd stands for the concentration at which binding is half-saturated. A high value points to a looser complex. In general, koff refers to the rate constant with which the complex falls apart. Read a high koff as a short-lived complex. One may read the kon as a measure of how fast the partners come together.
